A word on the stoichiometry N: it is a count of units in the complex or per binding partner.

Bounds are passed on as bounds.

The target of test [1] is ChbG from Klebsiella pneumoniae (chitooligosaccharide deacetylase), wild type (Klebsiella pneumoniae) (UniProt A6T7U7). As to the kind of experiment: SEC-MALS; kpChbG 5 mg/mL, Superdex 200 10/300, SEC buffer (20 mM Tris-HCl pH 8.0, 150 mM NaCl), 0.4 mL/min, 25 °C, DAWN-Treos MALS detector. For orientation: In gel filtration, larger molecules generally elute earlier.
Test [2] has the same target. The experiment in a line: SEC; Superdex 200 Increase 10/300 GL (24 mL), 20 mM Tris-HCl pH 8.0, 150 mM NaCl, 0.4 mL/min, 4 °C; wild type elutes at approximately 15 mL, E23K/D224K at approximately 17 mL.
Test [3] addresses kpChbG E23K/D224K double-mutant (Klebsiella pneumoniae) (UniProt A6T7U7).

Regarding “ChbG from Klebsiella pneumoniae (chitooligosaccharide deacetylase), wild type (from UniProt A6T7U7 1-252) (enzyme)”, the stoichiometry N in test [1] and in test [2] was 2 in each case.

With “kpChbG E23K/D224K double-mutant (from UniProt A6T7U7 1-252) (enzyme)”, the deacetylation of N,N’-diacetylchitobiose measured by ESI-MS, dimerization disrupting mutant E23K/D224K against wild type in test [3] was > 50%.

Values taken from PMC9402603.
